{"source": "the nanobody polyreactivity screen of Harvey et al. (2022)"}
{"experiment": "yeast display, Sf9 membrane polyspecificity reagent, FACS + sequencing; frameworks hold sequencing errors", "how_it_was_run": "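Galactose induction of a Saccharomyces cerevisiae BJ5465 synthetic nanobody display library ran 36–48 hours. The cells were then stained for 1 hour at 4 °C with 10% biotinylated, detergent-solubilized Sf9 membrane reagent, pulled down on streptavidin microbeads and FACS-sorted into low and high (top ~1%) gates on expression and reagent-binding fluorescence. Labels for polyreactivity follow the gate of origin.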"}
{"sequence": "QVHLVESGGGLVQAGGSLRLSCAASGSTFQSNAMGWYRQAPGKERELVATITQSGATTYYADSVKGRFTISRDNAKNTVYLQMNSLKPEDTAVYYCNVDTYQKRWFWLDLDGGYWGQGTQVTVSS", "polyreactivity (PSR sort gate)": "low polyreactivity"}
{"sequence": "QVHLVESGGGLVQAGGSLRLSCAASGSTFQTNAMGWSRQAPGKERELVAAISRTGGRSNYADSVKGRFTISRDNAKNTVYLQMHSLKPEDTAVYDCAAGVPKTGQAGYDYWGQGTQVTVSS", "polyreactivity (PSR sort gate)": "high polyreactivity"}
{"sequence": "QVHLVESGGGLVQAGGSLRLSCAASGSTFRYYAMGWYRQAPGKERELVAAIRDSGGSTYYADSVKGRFTISRDNAKNTVYLQMNSLKPEDTAVYYCARRAYRWYSAYDSWGQGTQVTVSS", "polyreactivity (PSR sort gate)": "high polyreactivity"}
{"sequence": "QVHLVESGGGLVQAGGSLRLSCAASGSTFSGYTMGWYRQAPGKEREFVAAISSRGGSTYYADSVKGRFTISRDNAKNSVYLQMNSVNPEDTAVYYCAAKVWARVDGRQFRLEYWGQGTQVTVSS", "polyreactivity (PSR sort gate)": "high polyreactivity"}
{"sequence": "QVHLVESGGGLVQAGGSLRLSCAASGSTFVGNAMGWNRKAPGKERELVATISNSGGRTYYADSVKGPFTISRDNAKNTVYLEMNSLKPEDTAVYYCAADHPAFGPVYSFDYWGQGTQVTVSS", "polyreactivity (PSR sort gate)": "low polyreactivity"}
{"sequence": "QVHLVESGGGLVQAGGSLRLSCAASGSTFVTYTMGWYRQAPGKERELVATITASGGSTYYADSVKGRFTISRDNEKNTVYLQMNSLKPEYTAVYYCAKRRSPVERYDFWGQGTQVTVSS", "polyreactivity (PSR sort gate)": "low polyreactivity"}
{"sequence": "QVHLVESGGGLVQAGGSLRLSCAASGSTFYLYAMGWYRQATGKERELDASISRSGITTYSDSVKGRFTITRDNAKNNVYLQLNSRNPEDTADYYCAVRYYSASYWYGYDYWGLGTQVTVSS", "polyreactivity (PSR sort gate)": "high polyreactivity"}
{"sequence": "QVHLVESGGGLVQAGGSLRLSCAASGSTFYNNAMGLYRQAPGKERELVASISLSAGSTYYADSVKGRFTISRDNAKNTVYLQMNSMKPEDTAVYYCAAESVAILVLVYPKGYGYWGQGTQVTVSS", "polyreactivity (PSR sort gate)": "low polyreactivity"}
{"sequence": "QVHLVESGGGLVQAGGSLRLSCAASGSTIVDYHMAWYRQAPGKERELVASISSSGGSTYYADSVKGRFTISRDNAKNTVYLQMNSLKPEDTAVYYCAADTWGFWYWGPLFSKYGYWGQGTQVTVSS", "polyreactivity (PSR sort gate)": "low polyreactivity"}
{"sequence": "QVHLVESGGGLVQAGGSLRLSCAASGSTLVIYAMGWYRQAPGKERELVAVITWSGGSTYYADSVKGRFTISRDNAKNTVYLQMNSLKPEDTAVYYCAKRPIVRQRSYYYWGQGTQVTVSS", "polyreactivity (PSR sort gate)": "low polyreactivity"}
{"sequence": "QVHLVESGGGLVQAGGSLRLSCAASGSTLVYNDMGWYRQAPGKEREFVAAIRSNDGSTYYADSVKGRFTISRDNAKNTVYLQMNSLKPEDTAVYYCAAERGYPKFGYWGQGTQVTVSS", "polyreactivity (PSR sort gate)": "low polyreactivity"}
{"sequence": "QVHLVESGGGLVQAGGSLRLSCAASGSTLYRYAMGWYRQAPGKERELVATITRSGGSTYYADSVKGRFTISRDNAKNTVYLQINSLKPEDTAVYYCDAYRKVGGFSRGDYWGQGTKVTVSS", "polyreactivity (PSR sort gate)": "high polyreactivity"}
{"sequence": "QVHLVESGGGLVQAGGSLRLSCAASGSTSDNTMGWYRQAPGKERELVAAISQRGVSTYYADSVKGRFTISRDNAKNTVYLQMNSLKPEDTAVYYCNALLSAKFDYWGQGTQVTVSS", "polyreactivity (PSR sort gate)": "low polyreactivity"}
{"sequence": "QVHLVESGGGLVQAGGSLRLSCAASGYIFGYYAMGWYRQAPGKERELVAAISQGGGDTYYADSVKGRFTISRDNAKYTVYLQMNSLKPEDTAVYYCAADYEQSYVLTGTFKYDYWGQGTQVTVSS", "polyreactivity (PSR sort gate)": "low polyreactivity"}
{"sequence": "QVHLVESGGGLVQAGGSLRLSCAASGYIFRWYAMGWYRQAPGKEREFVASISKRGGSTYYADSVKGRFTISRDNAKNTVYLQMNSLKPEDTAVYYCARTPSPLLYSYDYWGQGTQVTVSS", "polyreactivity (PSR sort gate)": "high polyreactivity"}
{"sequence": "QVHLVESGGGLVQAGGSLRLSCAASGYIFTIYAMGWYRQAPGKERELVAAITSGGSTSYADSVKGRFTISRDNAKNTVYLQMNSLKPVDTAVYYCAAASVYAGLYYLWVYTGYDYWGQGTQVTVSS", "polyreactivity (PSR sort gate)": "high polyreactivity"}
{"sequence": "QVHLVESGGGLVQAGGSLRLSCAASGYIFYAIAMGWYRQAPGKERELVAAISTGGNTNYADSVKGRFTISRDNAKNTVYVQMNSLKPEDTAVYYCAVRSTGPYRWRTPVTRDYWGQGTQVTVSS", "polyreactivity (PSR sort gate)": "low polyreactivity"}
{"sequence": "QVHLVESGGGLVQAGGSLRLSCAASVRTYRGNAMGWYRQAPGKEREMVAAITYRTGSTYYADSVKGRFTISRDNAKNTVYLLMNSLKPEDTAVYYCAAVSGRSYDKYYYWGQGTQVTVSS", "polyreactivity (PSR sort gate)": "high polyreactivity"}
{"sequence": "QVHLVESGGGLVQAGGSLRLSCAATGRTLTCNARGWYRQAPGKERELVPAISRSGGGSTYYADSVKGRFTISRDTAKNTVYIQMISLKPEDTAVYYCAARYRVHYYWYPMGYWGQGTQVTVSS", "polyreactivity (PSR sort gate)": "high polyreactivity"}
{"sequence": "QVHLVESGGGLVQAGGSLRLSCAAYGIIFNSNAMGWYRQAPGKERELVAAISVSGGSTYYADSVKGRFTISRDNAKNTVYLQMNSLKPEDTAVYFCAARTGRGDRTRRYYYWGQGTKVTVSS", "polyreactivity (PSR sort gate)": "high polyreactivity"}
{"sequence": "QVHLVESGGGLVQAGGSLRLSCAAYGRNFQYNAMGWDRQAPGKEREFVASISGSGGRTYYADSVKGRFTISRDNAKNTVYLQMNSLKPEDTAVYYCNASLLFPLLYGPESGEFDYWGQGSQVTVSS", "polyreactivity (PSR sort gate)": "low polyreactivity"}
{"sequence": "QVHLVESGGGLVQAGGSLRLSCAAYGSTFTWYARGWYRQAPGKERELVADISYGGGSTYYADSVKGRFTISRDNAKNTVYLQMNSLKPEDTAVYYCAAESIPYYRYDYWGQGSQVTVSS", "polyreactivity (PSR sort gate)": "low polyreactivity"}
{"sequence": "QVHLVESGGGLVQAGGSLRLSCADSGSTFKNYAMGWYRPAPGKERELVATITKRGGSTYYADSVKGRFTISRDNAKNTVYLQMKSMKPEDTAVYYCAAAPNGPRYRDRFDYWGQGNQVTVSS", "polyreactivity (PSR sort gate)": "high polyreactivity"}
{"sequence": "QVHLVESGGGLVQAGGSLRLSCAPSGSIFRNYAMGWYRQAPGKESELVATISGRGGRTYYEDSVKGRFTISRDNAKNTVYLQMNSLKPEDTAVYYCAARGTLGKYSTASVYSGQGTQVTVSS", "polyreactivity (PSR sort gate)": "high polyreactivity"}
{"sequence": "QVHLVESGGGLVQAGGSLRLSCASSGTTFRYYAMGCYRQAPGKERELVAAITYRGGRTYYADSVKGRFTISRDNPKNTVYLQMNSLKPEDTAVYYCAGKSGGDSMDSWGQGTQVTVSS", "polyreactivity (PSR sort gate)": "low polyreactivity"}
{"sequence": "QVHLVESGGGLVQAGGSLRLSCDASGLTFANNAMGWYRQAPGKEREFVAAIRGSGGSTYYADSVKGRFTISRDNAKNTVYLQMNSLKPEDTAVYYCNAGYLRKYHGWFQVKFDYWGQGTQVTVSS", "polyreactivity (PSR sort gate)": "low polyreactivity"}
{"sequence": "QVHLVESGGGLVQAGGSLRLSCDASGSTFGYYAMGWYRQAPGKERELVAAISWNGVSTYYADSVKGRFTISRDNAKNTVYLQMNCLKPEDTAVYYCATVGLRRLFVNPGTLMDYWGEGTQVTVSS", "polyreactivity (PSR sort gate)": "low polyreactivity"}
{"sequence": "QVHLVESGGGLVQAGGSLRLSCPASGRTLDSNAMGWYRQAPGKERELVAAISSAGSTNYADSVKGRFTISRDNAKNTVYLQMNSLKPEDTAVYYCAADLIGSHDYWGQGTQVTVSS", "polyreactivity (PSR sort gate)": "low polyreactivity"}
{"sequence": "QVHLVESGGGLVQAGGSLRLSCYASGRIFRYYAMGWYRQPPGKERELVAVINCSGGSTYYAVSVKGRFTISRDNAKNSVYLQMNSLKPEDTAVYYCYVYSVYPQFNYWGQGTQVTVSS", "polyreactivity (PSR sort gate)": "high polyreactivity"}
{"sequence": "QVHLVESGGGLVQAGGSLRLSGAASGFTFYRYAMGWSRQAPGKERELVAAITSGAITYYADSVKGRFTISRDNAKNTVYLQMNSLKPEETAVYYCNAVYRVAAIVRYDYWGQGTQVTVSS", "polyreactivity (PSR sort gate)": "high polyreactivity"}
{"sequence": "QVHLVESGGGLVQAGGSLRLSSAASGRIFDRYAMGWYRQAPGKERELVAAITSRADRTYYADSLKGRFTISRDNAKNTVYLQMNSLKPEDTAVYYCNTDKKYRHRYGGILDYWGQGTEVTVSS", "polyreactivity (PSR sort gate)": "high polyreactivity"}
{"sequence": "QVHLVESGGGLVQAGGSLRLSSAASGRIFYNYTMRWYRQAPGKERELVAAITRSGSSTYADSVKGRFTISRDNGKNTVYLQMNSLKQEDTAVYYCAGEYIRRYDYWGQGTQETVSS", "polyreactivity (PSR sort gate)": "low polyreactivity"}
{"sequence": "QVHLVESGGGLVQAGGSLRLSSAPSGSTFDAYDMGWYRQAPGKESELVAAITSGGSTNYADSVKGRFTISRDNAKNTVYLQMNSLKPEDTAVYYCAASPYRGFVSRYGYWGQGTQVTLSS", "polyreactivity (PSR sort gate)": "low polyreactivity"}
{"sequence": "QVHLVESGGGLVQAGGSLRLTCAASGFTFHQYAMGWYRQAPGKERELVAAISQSGDSTYYADSVKGRFTISRDNSKNTVYLQMNSLKQEYTAVYYFNADNDGVVWSDPFDFDYWGQGTQVTVSS", "polyreactivity (PSR sort gate)": "low polyreactivity"}
{"sequence": "QVHLVESGGGLVQAGGSLRLTCAASGFTYPGNAMGWYRQAPGKERELVATINWSGTSTYYADSVKGRFTISRDYAKNTVYLQMNSLKPEDTAVYYCAVDTGGPGYRFDYWGQGTQVTVSS", "polyreactivity (PSR sort gate)": "high polyreactivity"}
{"sequence": "QVHLVESGGGLVQAGGSLRLTCAASGLIFYDNMGWYRQAPGKERELVAAISSSGGSTSYADSVKGRFTISRDNAKNTVYLQMTSLKPVDTAVYYCAADSYPAYLGFVGFDYWGKGTQVTVSS", "polyreactivity (PSR sort gate)": "low polyreactivity"}
{"sequence": "QVHLVESGGGLVQAGGSLRLTCAASGRIFTSYVMGRSRQAPGQVRDLVAAITRSGGSTYYADSVKGRFTISRDNAKNTVYLQMNSLKPEDTAVYYCNALTRRQNGGEGGGYWGQGTHVTVSS", "polyreactivity (PSR sort gate)": "high polyreactivity"}
{"sequence": "QVHLVESGGGLVQAGGSLRLTCAASGSIFLWNAMGWYRQAPGTEREVVAAITWRGGSTYYADSVKGRFTISRDNEKYTVYLQMNSLKPEDTAVYYCAADSYDWMDYWGQGTQVTVSS", "polyreactivity (PSR sort gate)": "low polyreactivity"}
{"sequence": "QVHLVESGGGLVQAGGSLRLTCAASGSILAYNAMGWYRQAPGKERELVAAIRLSGGSTYYADSVKGRFTISRDNAKNTVYLQMNSLKPEDTAVYYCARRYYRYDTRKYNYWGQGTKVTVSS", "polyreactivity (PSR sort gate)": "high polyreactivity"}
{"sequence": "QVHLVESGGGLVQAGGTLRLSCAATGRTIYDNAMGWYRQAPGKESELVAVISRSGSTYYADSVKGRFTISRDNAKNSVYLQMNSLKPEDNAVYYCARRGVWGVTYSRLYHWGQGTQVTVSS", "polyreactivity (PSR sort gate)": "high polyreactivity"}
{"sequence": "QVHLVESGGGLVQAGRSLRLSCAASGRIFSRYAMGGSRQAPGKERELVAVISRSGADTYYADSVKGRFTISRDNAKTTVYLQMNSLKPEDSAVYSCNAYSARRPHPMGYDYWGQCTQVTVSS", "polyreactivity (PSR sort gate)": "high polyreactivity"}
{"sequence": "QVHLVESGGGLVQAGVSLRLSCAASGSTFDYYAMGWYIQAPGTERELVAGITGGGSTYYADSVKGRFTISRDNAKNTVYLQMNSLKPEDTAVYYCNAGPAQRYDYWGQGTQVTVSS", "polyreactivity (PSR sort gate)": "low polyreactivity"}
{"sequence": "QVHLVESGGGLVQAGVSLRLSCAASGSTFRRNAMGWYRQEPGKERELVAAISTSGGTTYYADSVKGRFTISRDNAKNTVYLEMNSLKPEDTAVYYCNADVYVWNYKYYSSGQGTQVTVSS", "polyreactivity (PSR sort gate)": "high polyreactivity"}
